Experiment: yeast display, Sf9 membrane polyspecificity reagent, FACS + sequencing; frameworks hold sequencing errors
Method in brief: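 A synthetic nanobody library was expressed on Saccharomyces cerevisiae BJ5465 by galactose induction for 36–48 hours. The library was stained for 1 hour at 4 °C with 10% biotinylated, detergent-solubilized Sf9 membrane reagent and enriched with streptavidin microbeads before FACS. Low and high (top ~1%) gates were set on anti-HA fluorescence for expression and streptavidin fluorescence for reagent binding, and each polyreactivity label reflects the gate of origin.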

Sequence	polyreactivity (PSR sort gate)
QLQLVESGGGLVQAGGSLRLSCAASGGTFYTNAMGRYRQAPGKEREFVAAISWIGGSTRYADSVKGRFTISRDNAKNTVYLQMNSLKPEDTEVYFCAAEDVFWVGEYYYEMDYWGQGTQVTVSS	high polyreactivity
QLQLVESGGGLVQAGGSLRLSCAASGIIFDFYAMGWYRQAPGKERELVAAITSSGGSTYYADSVKGRFTISRDNAKNTVYLQMNSLKPEDTAVYYCAADPWFYGYYDMDYWGQGTQVTVSS	low polyreactivity
QLQLVESGGGLVQAGGSLRLSCAASGITFYGYAMGWYRQAPGKERELVAAISSRGGSTYYADSVKGRFTISRDNAKNTVYLQMNRLKPEDTAVYYCAAVYYTGEYYYWGQGTQVTVSS	high polyreactivity
QLQLVESGGGLVQAGGSLRLSCAASGLIFYDNMGWYRQAPGKERELVAAISSSGGSTSYADSVKGRFTISRDNAKNTVYLHMNSLKPEDTAVYYCAADSYPAYLGFVGFDYWGQGTQVTVSS	low polyreactivity
QLQLVESGGGLVQAGGSLRLSCAASGLTFYWYAMGWYRQAPGKERELVAAITSTGSTYYADSVKGRFTISRDNAKNTVYLQMNILKPEDTAVYYCNADFPANWGWDYDYWGQGTQVTVSS	low polyreactivity
QLQLVESGGGLVQAGGSLRLSCAASGRTFFKYVMGWYRQAPGKERELVAAISYRSGSTYYADSVKGRFTISRDNAKNTVYLQMNSLKPEDTAVYYCAKEPPPVKGDYWGQGTQVTVSS	low polyreactivity
QLQLVESGGGLVQAGGSLRLSCAASGRTFPGNAMGWYRQEPGKERELVATITWSSGRTHYADSVKGRFTISRDNAKNTVYLQMNSLKPEDTAVYYCAAKWIVAVGGFYYWGQGTQVTVSS	low polyreactivity
QLQLVESGGGLVQAGGSLRLSCAASGRTFVYNVMGWYRQAPGKERELVAAISSGGSTNYADSVKGRFTNSRDNAKNTVYLQMNRLKPEDSAVYYCNAGTLNYRYRWGHYYDSWGQGTQVTVSS	low polyreactivity
QLQLVESGGGLVQAGGSLRLSCAASGSIFKPYALRCYIQAPGKERELVAAITRSGGSTYYADSVKGRFTISRDNAKNTVYLQMNSLKPEDTAVYYCAAGNAPYYRFGSKKYGYWGQGTQVTVSS	high polyreactivity
QLQLVESGGGLVQAGGSLRLSCAASGSILGSYAMGWYRQAPGKERELVAAITRRGSSTYYADSVKGRFTISRDNAKNTVYLQMNSLKPEDTAVYYCAVYRRWYSGLYDYWGQGTQVTVSS	high polyreactivity
QLQLVESGGGLVQAGGSLRLSCAASGSIYYEKVMGWYRQAPGKERELVAGISRSGGRTYYADSVKGRFTISRDNAKNTVYLQMNSLKPEDTAVYYCAALTPRNRYRKFDYWGQGTQVTVSS	high polyreactivity
QLQLVESGGGLVQAGGSLRLSCAASGSTFATYAMGWYRQAPGKESELVAVITRGGSTYYADSVKGRFTISRDNAKNTVYLQMNSLKPEDTAVYYCAAKAYTYYARIGFDYWGQGTQVTVSS	high polyreactivity
QLQLVESGGGLVQAGGSLRLSCAASGSTFGSNAMGWYRQAPGKERELVAAISTSSGSTYYAVSVKGRFTISRDNAMNTVYLQMNSMKPEDTAVYYCNADRHYVPYYSRPRYIPYDYWGQGTQVTVSS	high polyreactivity
QLQLVESGGGLVQAGGSLRLSCAASGSTFNYNAMGWYRQAPGKEREFVAAISRSGGSTSYADSVKGRFTISRDNAKNTVYLQMNSLKPEDTAVYYCAAYYRKTGYDYWGQGTQVTVSS	high polyreactivity
QLQLVESGGGLVQAGGSLRLSCAASGSTFSVYAMGWYRPAPGKERELVAAISSGGNTKYADSVKGRFTISRDNAKNTVYLQMNSLKPEDTAVYYCNADSQRPAYWDGYWGQGTQVTVSS	low polyreactivity
QLQLVESGGGLVQAGGSLRLSCAASGSTYATYTMGWYRQAPGKERELVAAISVSGSRTYYADSVKGRFTISRDNAKNTVYLQMNSLKPEDTAVYYCNADPPVKLYLYDYWGQGTQVTVSS	high polyreactivity
QLQLVESGGGLVQAGGSLRLSCAASVRTFQNYAMGWYRQAPGKEREFVAAITWRVGTTYYADSVKGRFTISRDNAKNTVYLQMNSLKPEDTAVYYCAARSRTVRYDYWGQGSQVTVSS	high polyreactivity
QLQLVESGGGLVQAGGSLRLSCAATGSTFYDNAMGWYRQAHGKERELVARIRWSGVRTYYADSVKGRFTISRDNAKNTVYLQMNSLKPEDTAVYYCAAGRPRPHWWSLDYYYWGQGTQVTVSS	low polyreactivity
QLQLVESGGGLVQAGGSLRLSCAGSGSIFVGYAMGWYRQAPGKARELVAAISTRGGSTYYADSVKGRFTISRDNAKNTVYLQMNSLKPEDTAVYYCAADYLDSTYGYVYGWDDYWGQGTQVTVSS	low polyreactivity
QLQLVESGGGLVQAGGSLRLSCAPSGSTFESYAMGWYRQSPGKERELVAAISSSGGSTYYADSVKGRFTISRENAMNTVYLEMYRLIPEDTAVYYCAAPTFSRYYYWGQGTQVTVSS	high polyreactivity
QLQLVESGGGLVQAGGSLRLSCASSGRIFRYNAMGWYRQAPGKERELVAVISGSGGSTYYADSVKGRFTISRDNAKNTVYLQMNSLKPEDTAVYYCAAQFHVSWYNYWGQGTQVTVSS	low polyreactivity
QLQLVESGGGLVQAGGSLRLTCAASGIIFAYNARGWYRQAPGKERELVATITDSRGSTSYADSVKGRFTISRDNAKNTVYLQMNSLKPEDTAVYYCAVLPVYWYWRNYVYLSGYDYWGQGTQVTVSS	low polyreactivity

Sequence	polyreactivity (PSR sort gate)
QLQLVESGGGLVQAGGSLRLTCAASGSIIWVYAMGWYSQAPGKEWELVAAITSGVSTYYADSVKGRFTISRDHAKNTVSFQMISLKPEDTAVYYCAVVGGFRWIRMEYWGQGTQVTVSS	low polyreactivity
QLQLVESGGVLVQAGASLRLSCAATVSTFIYYAMGWYRQAPGKEREVVAAISKRGGNTYYADSVKGRFTISRDNAKNTVYLQMNSLKPEDTAVYYCAARVYGTSRRYYSWGQGTQVTVSS	high polyreactivity
QLQLVESGRGLVQAGGSLRISCDASGSTFRRNAMGWYRPAPGKERELVAAITRGGGSTYYADSVKGRLTISRDNAKNTVYLQMNSLKPDDTAVYYCAAQISATRETMDYWGQGTQVTVSS	high polyreactivity
QLQLVESGRGLVQAGGSLRLSCAASGLIFGNYAKRSYRQPPGKESELVAAITSTGITYYADSVKGRFTISRDNAKNTVYLQMTSLKPEDTAVYYCAAASRFHPDRGGYWGQGTQVTVSS	low polyreactivity
QLQLVESGRGLVQAGVSLRLSCAASGFIFEDYAMGCYRTAPGNDRELVAAISRRGGSTYYADSVKGRFTISRYNAKKTVYLQMNSLKPEDTAVYYCAAYYPYSGKGGYDYWGQGTQVTVSS	high polyreactivity
QLQLVETGGGLVQAGGSLRLSCAASGRIFQYYVMGWYRQAPGKERELVAAITSGGSTYYADSVKGRFTISRDNAKNTVYLQMNSLKPEDTAVYYCAAGYWYNFDYWGQGTQVTVSS	high polyreactivity
QLQLVQSGGGLVQAGGSLRLSCAASGRIFFKYVKGWYRQAPGKERELVAAISSAGSTYYADSVKRRFTISRDNAKNTVYLQMNSLQPEDTAVYYCATYYSAINYGWSKTILYDYWGQGTQVTVSS	low polyreactivity
QLQRVESGGGLVQAGGSLRLSCAASGITYRYYVMGWYRQAPGKETQLVAAITSGVSTYYADSVKGRFTISRDNAKNTVYLELNSLKPEDTAVDYCAADEPWTYYLYGKMYYWGQGTQVTVSS	high polyreactivity
QLQRVESGGGLVQAGGSLRLSCAASGSIFSPYAMGWYRQAPGKERELVAAISTRGGNTYYADSVKGRFTISRDNAKNTVYLQMNSLKPEDTAVYYCARKIRREGRYDYWGQGTQVTVSS	high polyreactivity
QVELVESAGGLVQAGGSLRLSCAGSGSTFEYNAMGWYRQGPGKERELVASSTNYADSVKGRFTISRDNAKNTVYLKMNSLKPEDTAVYYCAREQGVNRYHDYWGQGTQVTVSS	low polyreactivity
QVELVESGGGLVQAGGSLRLSCAASGITLRHYTMGWYRQAPGKVRELVATISRSGGRTYYADSVKGRFTISRDIAKNTVYLQMNSLKPEDTAFYYCARQFWRHWYGYWGQGTQVTVSS	high polyreactivity
QVELVESGGGLVQAGGSLRLSCAASGYTFRFNAMGWYRQAPGKEREFVAAIDFGGAGTYYADSVKGRFTISRDNAKNTVYLQMNSLKPEDTAVYYCNARDGVTTEFDYWGQGTQVTVSS	low polyreactivity
QVELVESGGGLVQPGGRLRLSCAASGFTFNYYAMGWYRQAPGKEREFVAAISRGGGRTYYADSVKGRFTISRDNAKNTVYLQMNSLKPEDTAVYYCAAQSVPYAYRLASYDYWGQGTQVTVSS	high polyreactivity
QVELVVSGGGLVQAGGSLRLSCAAYGSIFLGNAMGWYRQAPGKEREFVAGIRGSAGTTSYADSVKGRFTISRDNAKNPGYLQMNSLKPEDTAVYYCAARPRHSDGYYYWGQGTEVTVSS	high polyreactivity
QVHHVESAGGLVQAGGSLRLICAASGSTFDYYAMGWYRQEPGKERELLAGIDSAGSTNYADSVKGRFTISRDNAKNTVYLQMNSVKTGTYRGLYCNVGKTITTYAFPTFDYWGQGSQVTVSS	low polyreactivity
QVHHVESGGGLVQAGGSLRLSCAASGFIFVHNAMGCYSQAPGKERELVAAIRSRGGSTYYADSVKGRFTISRDNAKNTVYLQMNRLKPEDTAGYYCAADGAVVSSSRKFGYWGQGTQVTVSS	low polyreactivity
QVHHVESGGGLVQAGGSLRLSCAASGFTLGWYAMGWYRQAPGKERELVAAISSSGGSTYYADSVKGRFTISRDNAKNTVYFQMNSLKPEDTAVYFCAASSAYYRYGYGQFDYWGQGTQVTVSS	high polyreactivity
QVHHVESGGGLVQAGGTLRLSCSASGSTFWANAMGWYRQQPGKEWEFVARITYSCGSTYYADSVKGRFTISRDNAKNTVYLQMNSLIREDTAVYYCAAELPGKLVYWGQGSQVTVSS	low polyreactivity
QVHIVDSCGGLVKAGGSLRLSSAASGSIFHPYTMVWYRQAPGKEMELVAGISQSTDSTYYADSLKGRFTISRDYAKTTVYFQMISLKPEDTAVYYCNRVYDLPLSVVEVDYWGQGTQVTVSS	low polyreactivity
QVHIVESGEVIVQAGGSLRLSCDASGFTIIQYAMGWYRQAPGKERELVAAISVSGGSTYYADSVKGRFTISRDNAKNTVYLQMNSLKTEDTAVYYCATYGFHSIGSIFEYEYWGQGTQVTVSS	high polyreactivity
QVHIVESGGGLVQAGGSLRLSCAASGFTFFSNAMGWYRQAPGKQRELVASISASGSGTYYAVSVKGRFTISRDNAKNTFYLQMNSLKPDDTAVYYCSTRVGKILTTKYGYWGQGTQVSVSS	high polyreactivity
